The text below walks through data of patent publication US20190367631A1 (Regeneron, published 2019).

Bounds are passed on as bounds.

Assay [1] has as its target T1, full length monkey MSR1 on HEK293.mfMSR1 cells (Macaca fascicularis, UniProt A0A2K5UWE2 1-451).
T1 construct: whole, on cells
T1 sequence: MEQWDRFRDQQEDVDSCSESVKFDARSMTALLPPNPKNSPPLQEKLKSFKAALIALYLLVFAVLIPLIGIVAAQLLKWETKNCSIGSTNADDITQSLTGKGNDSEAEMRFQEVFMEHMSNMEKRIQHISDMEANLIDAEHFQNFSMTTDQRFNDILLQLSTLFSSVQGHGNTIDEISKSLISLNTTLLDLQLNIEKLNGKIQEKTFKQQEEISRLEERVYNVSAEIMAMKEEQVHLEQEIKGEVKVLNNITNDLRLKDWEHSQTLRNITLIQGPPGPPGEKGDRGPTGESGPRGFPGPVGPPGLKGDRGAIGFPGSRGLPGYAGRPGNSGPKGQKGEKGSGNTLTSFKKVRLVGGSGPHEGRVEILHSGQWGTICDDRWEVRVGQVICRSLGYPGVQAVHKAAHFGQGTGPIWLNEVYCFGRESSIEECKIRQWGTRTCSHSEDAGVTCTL
In words: ECL cell binding, HEK293.mfMSR1 cells, 11 nM.
Protocol: All cells were washed once with 1×PBS with Ca²⁺/Mg²⁺ and counted with a Cellometer™ Auto T4 cell counter (Nexcelom Bioscience). Approximately 1.0×10⁴ cells were seeded separately onto 96-well carbon electrode plates [MULTI-ARRAY high bind plate, Meso Scale Diagnostics] and incubated for 1 hour at 37° C. Non-specific binding sites were then blocked by 2% BSA (w/v) in PBS with Ca²⁺/Mg²⁺ for 1 hour at room temperature. THP-1 cells were pre-incubated for 0.5 hours at room temperature in sample dilution buffer with: 1) 1 mg/mL Fc receptor block reagents to block Fc gamma receptors on THP-1 cell surface [whole molecule human IgG (Jackson Immunoresearch, Cat #009-000-003) for wells being tested with anti-MSR1-mFc antibodies or 2) whole molecule mlgG (Jackson Immunoresearch, Cat #015-000-003) for wells being tested with anti-MSR1-hFc antibodies. Antibody binding on HEK293.Myc.hMSR1, HEK293.mfMSR1 and HEK293 cells was tested without Fc receptor block reagents. […] Plates were then washed to remove unbound antibodies an AquaMax2000 plate washer with a cell washing head (MDS Analytical Technologies). […] Plates were washed and developed with Read Buffer (Meso Scale Diagnostics, Cat # R92TD-2) according to manufacturer's recommended procedure and luminescent signals were recorded with a SECTOR Imager 600 (Meso Scale Diagnostics). Luminescence intensity, measured in relative light units (RLU), was recorded to indicate the binding intensity of each antibody at the range of concentrations.

The target of assay [2] is T2, mouse MSR1 on RAW264.7 cells (mouse, UniProt P30204 1-458).
T2 construct: whole, on cells; also called MSR1 positive RAW264.7 cells
T2 sequence (looked up): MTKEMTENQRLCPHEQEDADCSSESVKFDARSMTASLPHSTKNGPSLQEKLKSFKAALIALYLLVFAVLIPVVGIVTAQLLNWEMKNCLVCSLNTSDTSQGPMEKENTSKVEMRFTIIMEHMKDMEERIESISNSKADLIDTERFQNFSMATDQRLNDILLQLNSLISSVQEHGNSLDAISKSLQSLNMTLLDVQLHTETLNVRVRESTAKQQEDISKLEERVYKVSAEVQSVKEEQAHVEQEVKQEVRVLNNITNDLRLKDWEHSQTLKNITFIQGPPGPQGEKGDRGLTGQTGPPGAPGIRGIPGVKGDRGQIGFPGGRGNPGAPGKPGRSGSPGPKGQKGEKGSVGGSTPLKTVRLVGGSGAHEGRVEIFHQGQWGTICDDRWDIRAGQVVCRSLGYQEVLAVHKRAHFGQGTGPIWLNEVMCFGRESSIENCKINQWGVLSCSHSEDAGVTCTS
Nature of the assay: flow cytometry, RAW264.7 cells. A general note: Flow cytometry measures light scatter and fluorescence of single cells or particles in a stream.
Protocol: To block binding to Fc receptors, RAW264.7 cells were incubated for 30 minutes at 4° C. with 500 pg/mL mouse IgG (Jackson ImmunoResearch, Cat #015-000-003) diluted in staining buffer, while B16F10.9 cells remained in staining buffer. […] The signal to noise (S/N) was determined by calculating the ratio of the anti-MSR1 antibodies or the control antibodies MFI to the unstained sample MFI (Table 11).

Assay [3] has as its target T3, full length human MSR1 with a C-terminal Myc tag, on HEK293.Myc.hMSR1 cells (human, UniProt P21757 1-451).
T3 construct: whole, on cells; stably expressed on engineered HEK293 cells; not shown: C-terminal Myc tag
T3 sequence (looked up): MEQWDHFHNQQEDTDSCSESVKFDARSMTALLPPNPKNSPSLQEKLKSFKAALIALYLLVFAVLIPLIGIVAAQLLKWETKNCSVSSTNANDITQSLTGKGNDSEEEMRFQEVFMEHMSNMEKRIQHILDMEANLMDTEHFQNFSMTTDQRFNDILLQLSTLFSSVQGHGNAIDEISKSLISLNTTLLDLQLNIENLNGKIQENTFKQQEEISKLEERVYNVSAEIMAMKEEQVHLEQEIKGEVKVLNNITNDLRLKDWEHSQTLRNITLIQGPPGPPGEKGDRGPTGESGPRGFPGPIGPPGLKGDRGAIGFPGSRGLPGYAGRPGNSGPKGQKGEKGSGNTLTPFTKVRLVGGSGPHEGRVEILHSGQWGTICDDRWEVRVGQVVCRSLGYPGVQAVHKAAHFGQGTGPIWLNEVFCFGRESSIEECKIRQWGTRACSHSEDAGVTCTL
In words: ECL cell binding, HEK293.Myc.hMSR1 cells, 11 nM.

Assay [4] has as its target T3, full length human MSR1 with a …. Nature of the assay: cell-based or functional assay.

B1: H1H27762P2-N297Q (antibody, human IgG1, V domains shown)
VH: QVQLVQSGAEVKKPGSSVKVSCKASGGTFSRYDISWVRQAPGQGLEWMGGIIPIFGTSNYAQKFQGRVTITTDESTSTVYMELSSLRSEDTAVYYCARGGRYGWFDPWGQGTLVTVSS
VL: not shown
notes: human IgG1 Fc with N297Q; also called H1H27762P-N297Q
As for B1, the “ratio of binding signal (RLU) to isotype control” value (shortened to “ratio of binding signal (RLU)”) in assay [1] came out at 25 fold. For the same molecule, in assay [2], the MFI amounted to 3520 MFI and the “S/N (MFI over unstained MFI)” value is 1. Further, the “ratio of binding signal (RLU)” value in assay [3] was determined as 33 fold. Moreover, in assay [4], the “% Inhibition of Dil-Acetylated LDL uptake” value was 38%, the “% Inhibition of Dil-Oxidized LDL uptake” value stood at 78%, the “IC50 of Dil-Acetylated LDL uptake inhibition” value was determined as 2.9 nM and the “IC50 of Dil-Oxidized LDL uptake inhibition” value is 4 nM.

B2: H1H27766P2-N297Q (antibody, human IgG1, V domains shown)
VH: EVQLVESGGGLVQPGGSLRLSCAASGFTFSSFAMSWVRQAPGKELEWVSSISGRGGSTYYADSVRGRFTISRDNSKITLYLQMNSLRAEDTAVYYCAKDIVFRYTSSAYWYFDLWGRGTLVTVSS
VL: not shown
notes: human IgG1 Fc with N297Q; also called H1H27766P-N297Q
In the case of B2, in assay [1], the “ratio of binding signal (RLU)” value worked out at 13 fold. Moreover, in assay [2], the MFI was found to be 3810 MFI and the “S/N (MFI over unstained MFI)” value was 1. Also, the “ratio of binding signal (RLU)” value in assay [3] came out at 20 fold. For the same molecule, in assay [4], the “% Inhibition of Dil-Acetylated LDL uptake” value turned out to be 38%, the “% Inhibition of Dil-Oxidized LDL uptake” value came to 72%, the “IC50 of Dil-Acetylated LDL uptake inhibition” value is 3.5 nM and the “IC50 of Dil-Oxidized LDL uptake inhibition” value stood at 3.7 nM.

B3: H1H27729P-N297Q (antibody, human IgG1, V domains shown)
VH: QVQLVESGGGLVKPGGSLRLSCAASGFIFSDYYMSWIRQAPGKGLEWVSYISSSGTTIYGDSVKGRFTMSRDNAKNSLYLQMNSLRAEDTAVYYCARNYALFDYWGQGTLVTVSS
VL: DIQMTQSPSSLSASVGDRVTITCQASQDISKYLNWYQQKPGKAPKLLIYYTSNLETGVPSRFSGSGSGTDFTFTISSLQPEDIATYYCHQSDYLPFTFGPGTKVDIKR
notes: human IgG1 Fc with N297Q
Regarding B3, in assay [1], the “ratio of binding signal (RLU)” value came to 6 fold. Also, in assay [2], the MFI came out at 3480 MFI and the “S/N (MFI over unstained MFI)” value stood at 1. The “ratio of binding signal (RLU)” value in assay [3] is 17 fold. In assay [4], the “% Inhibition of Dil-Acetylated LDL uptake” value is 28% and the “IC50 of Dil-Acetylated LDL uptake inhibition” value amounted to 1.2 nM.

B4: H1H27739P-N297Q (antibody, human IgG1, V domains shown)
VH: EVQLVESGGGLVQPGGSLRLSCTASGFTFSSYAMSWVRQAPGKGLEWVSAISGTGSSTYFTDSVKGRFAISRDNSKNTLYLQMNSLRAEDTAVYYCAKDGEWLSTVTLFDYWGQGTLVTVSS
VL: EIVMTQSPATLSVSPGERATLSCRASQSVSSNLAWYQQKPGQAPRLLIYGASTRATGIPARFSGSGSGTDFTLTISSLQSEDFALYYCQQYFIWPPHPTFGPGTKVDIKR
notes: human IgG1 Fc with N297Q
For B4, the “ratio of binding signal (RLU)” value in assay [1] stood at 20 fold. In assay [2], the MFI came out at 3270 MFI and the “S/N (MFI over unstained MFI)” value worked out at 1. The “ratio of binding signal (RLU)” value in assay [3] is 22 fold. Moreover, in assay [4], the “% Inhibition of Dil-Oxidized LDL uptake” value stood at 55% and the “IC50 of Dil-Oxidized LDL uptake inhibition” value was more than 100 nM.

B5: H1H27761P2-N297Q (antibody, human IgG1, V domains shown)
VH: EVQLVESGGDLVQPGGSLRLSCSASGFTFNIYAMSWVRQAPGKGLEWVSGISGSGGSTYYADSVKGRFTISRDNSKNTLYFQMNSLRVEDTAVYYCAKKISSSSYYYYAMDVWGQGTTVTVSS
VL: not shown
notes: human IgG1 Fc with N297Q; also called H1H27761P-N297Q
On to B5, for which, in assay [1], the “ratio of binding signal (RLU)” value was 15 fold. Further, in assay [2], the MFI is 3840 MFI and the “S/N (MFI over unstained MFI)” value is 1. In assay [3], the “ratio of binding signal (RLU)” value was found to be 23 fold. Further, in assay [4], the “% Inhibition of Dil-Acetylated LDL uptake” value amounted to 29%, the “% Inhibition of Dil-Oxidized LDL uptake” value turned out to be 43%, the “IC50 of Dil-Acetylated LDL uptake inhibition” value was more than 100 nM and the “IC50 of Dil-Oxidized LDL uptake inhibition” value is 9.5 nM.

B6: H1H21234N-N297Q (antibody, human IgG1, V domains shown)
VH: QVQLQESGPGLVKPSETLSLTCTVTGGSISRNYWSWIRQPPGKGLEWIGYIYYSGSIDYNPSLKSRVTISVDTSKNQFSLKLSSMTAADTAVYYCARDRWNWKYGMDVWGQGTTVIVSS
VL: EIVLTQSPGTLSLSPGERATLSCRASQTVRNNYLAWYHQKPGQAPRLLIYGASSRATGIPDRFSGSGSGTDFTLTISRLEPEDFTVYYCHQYGNSPWTFGQGTKMEIKR
notes: human IgG1 Fc with N297Q point mutation (EU numbering)
For B6, the “ratio of binding signal (RLU)” value in assay [1] is 35 fold. For the same molecule, in assay [2], the MFI worked out at 7050 MFI and the “S/N (MFI over unstained MFI)” value came out at 3. Also, the “ratio of binding signal (RLU)” value in assay [3] is 43 fold. In addition, in assay [4], the “% Inhibition of Dil-Acetylated LDL uptake” value was 34%, the “% Inhibition of Dil-Oxidized LDL uptake” value was found to be 52%, the “IC50 of Dil-Acetylated LDL uptake inhibition” value turned out to be 1.3 nM and the “IC50 of Dil-Oxidized LDL uptake inhibition” value amounted to 6.1 nM.

B7: H1H21234N (antibody, human IgG1, V domains shown)
VH: QVQLQESGPGLVKPSETLSLTCTVTGGSISRNYWSWIRQPPGKGLEWIGYIYYSGSIDYNPSLKSRVTISVDTSKNQFSLKLSSMTAADTAVYYCARDRWNWKYGMDVWGQGTTVIVSS
VL: EIVLTQSPGTLSLSPGERATLSCRASQTVRNNYLAWYHQKPGQAPRLLIYGASSRATGIPDRFSGSGSGTDFTLTISRLEPEDFTVYYCHQYGNSPWTFGQGTKMEIKR
notes: original human IgG1 Fc
Turning to B7, the “ratio of binding signal (RLU)” value in assay [1] is 31 fold. Moreover, the “ratio of binding signal (RLU)” value in assay [3] amounted to 32 fold. In addition, in assay [4], the “% Inhibition of Dil-Acetylated LDL uptake” value was found to be 36%, the “% Inhibition of Dil-Oxidized LDL uptake” value is 64%, the “IC50 of Dil-Acetylated LDL uptake inhibition” value amounted to 0.71 nM and the “IC50 of Dil-Oxidized LDL uptake inhibition” value was found to be 4.3 nM.

B8: H1H27751P-N297Q (antibody, human IgG1, V domains shown)
VH: EVQLVESGGGLVQPGGSLRLSCAASGFTFSNYAMHWVRQAPGKGLEYVSAISSNGGSTYYADSVKGRITISRDNSKNTLYLQMGSLRAEDMAVYYCARGRPYYYYFGMDVWGQGTTVTVSS
VL: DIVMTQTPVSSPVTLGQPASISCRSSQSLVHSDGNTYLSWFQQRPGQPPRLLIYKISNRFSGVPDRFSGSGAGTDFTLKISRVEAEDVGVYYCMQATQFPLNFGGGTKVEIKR
notes: human IgG1 Fc with N297Q
Consider B8, for which the “ratio of binding signal (RLU)” value in assay [1] came to 49 fold. Further, in assay [2], the MFI was 3820 MFI and the “S/N (MFI over unstained MFI)” value was 1. The “ratio of binding signal (RLU)” value in assay [3] was 63 fold. In assay [4], the “% Inhibition of Dil-Acetylated LDL uptake” value worked out at 59%, the “% Inhibition of Dil-Oxidized LDL uptake” value was determined as 85%, the “IC50 of Dil-Acetylated LDL uptake inhibition” value was 1.6 nM and the “IC50 of Dil-Oxidized LDL uptake inhibition” value was found to be 2.9 nM.

B9: H1H27731P-N297Q (antibody, V domains shown)
VH: QLQLQESGPGLVKPSETLSLTCTVSGGSISRISYYWGWIRQPPGKGLEWIGSIYDSGSTYYNPSLKSRVTISIDTSKNQFSLKLSSVTAADTAVYYCVRYSSSSAFAFDYWGQGTLVTVSS
VL: DIQMTQSPSSVSASVGDRVTITCRASQGISSWLAWYQQKPGKAPKLLIYAASSLQSGVPSRFSGSGSGTDFTLTISSLQPEDFATYYCQQANSFPFTFGPGTKVDIKR
notes: human IgG1 Fc with N297Q
As to B9, the “ratio of binding signal (RLU)” value in assay [1] worked out at 43 fold. Besides, in assay [2], the MFI amounted to 3510 MFI and the “S/N (MFI over unstained MFI)” value stood at 1. The “ratio of binding signal (RLU)” value in assay [3] worked out at 48 fold. In assay [4], the “% Inhibition of Dil-Acetylated LDL uptake” value came to 37%, the “% Inhibition of Dil-Oxidized LDL uptake” value was 62%, the “IC50 of Dil-Acetylated LDL uptake inhibition” value is 1.8 nM and the “IC50 of Dil-Oxidized LDL uptake inhibition” value was more than 10 nM.

B10: H1H27759P2-N297Q (antibody, human IgG1, V domains shown)
VH: EVQLVESGGGFVQPGGSLRLSCAASGFTFSSYAMSWVRQAPGKGLEWVSAISGTGSNTYYADSVKGRFTISRDNSKNTLYLQMNSLRAEDTAVYYCAKDRVTTVTYYFDYWGQGTLVTVSS
VL: not shown
notes: human IgG1 Fc with N297Q; also called H1H27759P-N297Q
Consider B10, for which the “ratio of binding signal (RLU)” value in assay [1] came to 25 fold. Moreover, in assay [2], the MFI was found to be 3290 MFI and the “S/N (MFI over unstained MFI)” value worked out at 1. The “ratio of binding signal (RLU)” value in assay [3] worked out at 23 fold. Moreover, in assay [4], the “% Inhibition of Dil-Acetylated LDL uptake” value came to 48%, the “% Inhibition of Dil-Oxidized LDL uptake” value stood at 74%, the “IC50 of Dil-Acetylated LDL uptake inhibition” value was more than 100 nM and the “IC50 of Dil-Oxidized LDL uptake inhibition” value is more than 10 nM.
